For 3 substances, Kd, dH and stoichiometry N results are on record in paper PMC5427921, “PRL3 phosphatase active site is required for binding the putative magnesium transporter CNNM3” (Scientific Reports, 2017).

Experiment [1] deals with CNNM2 CBS-pair domain (Homo sapiens) (UniProt Q9H8M5). The conditions noted are these: cited from earlier work.
Experiment [2] addresses CNNM3 CBS-pair domain (Homo sapiens) (UniProt Q8NE01). Conditions: cited from earlier work.
In experiment [3] the target is CNNM3 CBS-pair domain as a GST fusion (human) (UniProt Q8NE01). The experiment can be described thus: ITC; syringe 160 μM PRL2 or PRL3, cell 16 μM CNNM3 CBS-pair domain as a GST fusion; 22 °C; 30 injections of 10 μl; fitted to a single set of identical sites.
CNNM3 CBS-pair domain as a GST fusion (human), sequence (Q8NE01 309-452): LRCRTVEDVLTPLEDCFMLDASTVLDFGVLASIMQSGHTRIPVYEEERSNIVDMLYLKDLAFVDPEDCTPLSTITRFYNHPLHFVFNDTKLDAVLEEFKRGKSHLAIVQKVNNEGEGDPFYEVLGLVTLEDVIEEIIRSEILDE

PRL2, sequence (Q12974 1-164): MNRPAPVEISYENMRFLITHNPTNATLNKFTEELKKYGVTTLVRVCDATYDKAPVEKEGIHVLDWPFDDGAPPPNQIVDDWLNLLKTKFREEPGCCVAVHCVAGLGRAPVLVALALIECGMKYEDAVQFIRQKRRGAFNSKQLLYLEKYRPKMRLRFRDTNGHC
CNNM2 CBS-pair domain (Homo sapiens), sequence (Q9H8M5 429-584): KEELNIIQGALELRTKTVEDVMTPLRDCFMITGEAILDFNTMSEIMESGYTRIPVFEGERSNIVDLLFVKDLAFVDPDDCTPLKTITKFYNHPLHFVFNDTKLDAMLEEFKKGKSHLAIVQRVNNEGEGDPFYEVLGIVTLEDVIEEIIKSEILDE
CNNM3 CBS-pair domain (Homo sapiens), sequence (Q8NE01 309-452): as the sequence (Q8NE01 309-452) above
PRL1, sequence (Q93096 1-170): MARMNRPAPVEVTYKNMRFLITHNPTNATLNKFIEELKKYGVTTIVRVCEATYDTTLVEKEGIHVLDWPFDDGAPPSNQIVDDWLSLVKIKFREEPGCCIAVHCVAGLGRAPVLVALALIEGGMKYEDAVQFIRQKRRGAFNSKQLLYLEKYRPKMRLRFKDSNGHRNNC

On to PRL1 (from UniProt Q93096), for which the Kd in experiment [1] was 640 nM. Regarding PRL2 (from UniProt Q12974), the dissociation constant (Kd) in experiment [2] was 25 nM. In experiment [3], “PRL2 phosphatase (as used in ITC) (from UniProt Q12974 1-167) (enzyme)” showed a dH of -16.6 kcal/mol and a stoichiometry N of 1.02.
